Data set [1] relates to human LPA gene (Genbank number: NM_005577.4). Nature of the data set: Inhibitory activity against LPA mRNA, psiCHECK-2 dual-luciferase reporter vector in Huh7 cells. The class given is cell-based. As to conditions: Huh7 cells transfected with LPA_psiCHECK-2 plasmid, RNAiMAX transfection. In a few lines:
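Huh7 cells transfected with psiCHECK-2 carrying human LPA, then treated next day with compounds (3 concentrations) delivered by RNAiMAX. Dual-Glo readout of firefly and Renilla luciferase per well. Percent inhibition calculated from the reporter ratio relative to the RNAiMAX control.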

Data set [2] concerns LPA mRNA. As to the kind of experiment: In vivo efficacy in LPA-HDI mouse model (liver LPA mRNA). Details: species or system BALB/c mouse. As to conditions: 3 mg/kg single subcutaneous injection, Day 14, relative to PBS blank group, 4 mice per group. As for the experimental part: The knockdown effect of the test double-stranded siRNA conjugate on the target gene LPA upon entry into the mouse is evaluated by rapid high-pressure injection of the physiological saline containing recombinant plasmid pcDNA-LPA carrying the target gene via the tail vein.
pcDNA-LPA plasmid, BALB/c mouse, PBS (phosphate buffer), and conjugates of the present invention.
Six-week-old female BALB/c mice were ordered and acclimated/quarantined for three days upon arrival in the animal room.
On Day 0, the mice were randomly grouped based on body weight data. After grouping, all mice were given a single administration via subcutaneous injection, with a dose volume of 10 mL/kg. Mice in Group 1 received PBS; mice in the other groups received the conjugates (dissolved in PBS).
On Day 13 post-administration, all mice were injected with normal saline containing the pcDNA-LPA plasmid via the tail vein within 5 seconds. The injection volume (mL) = mouse body weight (g) × 8%. The amount of plasmid injected per mouse was 10 µg.
On Day 14 post-administration, all groups of mice were euthanized by CO2 inhalation, and 2 liver samples were collected from each mouse. Liver samples were treated overnight with RNAlater at 4 °C, then RNAlater was removed, and stored at -80 °C for detection of LPA gene expression levels.

Data set [3] relates to hPBMCs. As to the kind of experiment: Immunogenicity test in hPBMCs (IL-6 and TNF-α ELISA of supernatant). In kind it is cell-based, human. As to conditions: 18-20 h. As for the experimental part: 1 Experimental material • 1.1 Double-stranded siRNA conjugates • 1.2 hPBMCs, purchased from Shanghai Sailybio Medical Co., LTD. • 1.3 Main reagents: Penicillin-Streptomycin (Cat. No.: 15140122), RNase-free water (Cat. No.: AM9938), IL-6 ELISA kit (Cat. No.: 555220), TNF-α ELISA kit (Cat. No.: 555212), LPS (Cat. No.: L2630), etc. 2 Experimental method • 2.1 Compound Preparation: Compounds were prepared as stock solutions with enzyme-free water. Compound weight = powder weight * purity. The concentration of prepared solutions was 900 µg/mL, followed by three-fold serial dilution with enzyme-free water. Each concentration was diluted 10-fold with 1640 medium, resulting in a final enzyme-free water content of 5.0%. • 2.2 Experimental procedure: • 2.2.1 PBMC cells were resuscitated one day in advance and incubated overnight in 1640 complete medium. • 2.2.2 On the day of the experiment, PBMC cells were centrifuged at 300 × g for 8 minutes, and the cell density was adjusted to 1.6 × 10^6 mL with 1640 complete medium. The cells were then added to a 96-well plate, 125 µL per well, and incubated in a 37 °C, 5% CO2 incubator for 15 minutes. • 2.2.3 The diluted test compounds were added to the 96-well plate according to the plate map, all in duplicate, 125 µL for each well; the positive control group and the blank group were added with an equal volume of 1640 complete culture medium containing the same amount of enzyme-free water. • 2.2.4 After gently shaking, the well plates were incubated in an incubator at 37 °C for 18-20 h. The supernatant was collected by centrifugation, and secretions of TNF-α and IL-6 were detected by ELISA. • 2.2.5 Data were analyzed using GraphPad Prism 8 software. 3 Experimental results Table 10. IL-6 and TNF-α levels in the cell supernatant of donor 1 hPBMCs treated with different doses of test compounds

The nature of data set [4]: Melting temperature (Tm) by UV absorption at 260 nm. In kind it is physicochemical. As to conditions: phosphate buffer solution; average of at least two independent measurements. The procedure:
The Tm value was determined by recording the change in UV absorption at 260 nm of DNA/RNA in phosphate buffer solution as the temperature increased.
Table 6 Melting temperature (Tm) test instrument parameters
The melting temperature (Tm) was calculated from the first derivative of the smoothed heating curve, and the reported value was the average of at least two independent measurements. Table 7 Melting temperatures (Tm) of conjugates of the present disclosure

Take “Z40: siRNA conjugate: sense SEQ ID NO:52, ligand D01 at 3' end of sense strand, antisense SEQ ID NO:78 (sense CCTGCCAAGCTTGGTCNTCTA; antisense TCTAGATGNCCAAGCTTGGCNGG; ligand D01 at sense 3' end; listed as RNA; modified_base 1..2: mod_base = OTHER; note = 2'-O-methylcytidine; modified_base 3: mod_base = OTHER; note = 2'-O-methyluridine; modified_base 4: mod_base = OTHER; note = 2'-O-methylguanosine; modified_base 5..6: mod_base = OTHER; note = 2'-O-m; modified_base 1: mod_base = OTHER; note = 2'-fluoroadenosine; modified_base 5: mod_base = OTHER; note = 2'-O-methyl)”: the concentration giving a half-maximal response (EC50) in data set [1] is 0.07 nM. In addition, the “% Downregulation of LPA mRNA” value in data set [2] is listed as 59.0%. The IL-6 in data set [3] (donor 1 hPBMCs, 5 µg/mL) is 1333.8 pg/mL; in data set [3] (donor 1 hPBMCs, 15 µg/mL), 1266.6 pg/mL; in data set [3] (donor 1 hPBMCs, 45 µg/mL) it was 1343.4 pg/mL. Moreover, the TNF alpha turned out to be 35.9 pg/mL in data set [3] (donor 1 hPBMCs, 5 µg/mL); 32.3 pg/mL in data set [3] (donor 1 hPBMCs, 15 µg/mL); 32.7 pg/mL in data set [3] (donor 1 hPBMCs, 45 µg/mL).
In data set [1], “Z47: siRNA conjugate: sense SEQ ID NO:51, ligand D01 at 3' end of sense strand, antisense SEQ ID NO:83 (sense CCTGCCAAGCTTGGTCATCTA; antisense NAGATGNCCAAGCTTGGCNGGTT; ligand D01 at sense 3' end; listed as RNA; modified_base 1..2: mod_base = OTHER; note = 2'-O-methylcytidine; modified_base 3: mod_base = OTHER; note = 2'-O-methyluridine; modified_base 4: mod_base = OTHER; note = 2'-O-methylguanosine; modified_base 5..6: mod_base = OTHER; note = 2'-O-m; modified_base 1: mod_base = OTHER; note = n is B33; modified_base 2: mod_base = OTHER; note = 2'-deoxyadenosine; note = 2'-O-methyladenosine)” displayed a half-maximal effective concentration (EC50) of 0.2 nM. Also, the “% Downregulation of LPA mRNA” value in data set [2] is 64.0%. In addition, the IL-6 in data set [3] (donor 2 hPBMCs, 5 µg/mL) is 49.9 pg/mL; in data set [3] (donor 2 hPBMCs, 15 µg/mL), 0.0 pg/mL; in data set [3] (donor 2 hPBMCs, 45 µg/mL), 16.7 pg/mL. Moreover, the TNF alpha is reported as 15.6 pg/mL in data set [3] (donor 2 hPBMCs, 5 µg/mL); 3.4 pg/mL in data set [3] (donor 2 hPBMCs, 15 µg/mL); 9.5 pg/mL in data set [3] (donor 2 hPBMCs, 45 µg/mL).
Take “Z54: siRNA conjugate: sense SEQ ID NO:49, ligand D01 at 3' end of sense strand, antisense SEQ ID NO:90 (sense CAGCCCCTTATTGTTATACGA; antisense NCGTATNACAATAAGGGGCNGTT; ligand D01 at sense 3' end; listed as RNA; modified_base 1: mod_base = OTHER; note = 2'-O-methylcytidine; modified_base 2: mod_base = OTHER; note = 2'-O-methyladenosine; modified_base 3: mod_base = OTHER; note = 2'-O-methylguanosine; modified_base 4..7: mod_base = OTHER; note = 2'-O-me; note = n is B33; note = 2'-fluorocytidine; modified_base 4: mod_base = OTHER; note = 2'-O-methyluridine;)”: the “Melting temperature Tm” value in data set [4] is 69.00 °C.
Still for that read-out and setting: with “Z56: siRNA conjugate: sense SEQ ID NO:43, ligand D01 at 3' end of sense strand, antisense SEQ ID NO:92 (sense CAGCCCCTTATTGTTANACGA; antisense TCTCGTATAACAATAAGGGGCTG; ligand D01 at sense 3' end; listed as RNA; modified_base 1: mod_base = OTHER; note = 2'-O-methylcytidine; modified_base 2: mod_base = OTHER; note = 2'-O-methyladenosine; modified_base 3: mod_base = OTHER; note = 2'-O-methylguanosine; modified_base 4..7: mod_base = OTHER; note = 2'-O-me; note = 2'-O-methyluridine; modified_base 4: mod_base = OTHER; note = 2'-fluorocytidine; modified_base 5: mod_base = OTHER; note = 2'-O-methylg)” the figure was 77.25 °C.
As to “Z48: siRNA conjugate: sense SEQ ID NO:51, ligand D01 at 3' end of sense strand, antisense SEQ ID NO:84 (sense CCTGCCAAGCTTGGTCATCTA; antisense NAGATGNCCAAGCTTGGCNGGTT; ligand D01 at sense 3' end; listed as RNA; modified_base 1..2: mod_base = OTHER; note = 2'-O-methylcytidine; modified_base 3: mod_base = OTHER; note = 2'-O-methyluridine; modified_base 4: mod_base = OTHER; note = 2'-O-methylguanosine; modified_base 5..6: mod_base = OTHER; note = 2'-O-m; modified_base 1: mod_base = OTHER; note = n is B34; modified_base 2: mod_base = OTHER; note = 2'-deoxyadenosine; note = 2'-O-methyladenosine)”, a half-maximal effect in data set [1] (EC50) was put at 0.09 nM. Moreover, in data set [2], the “% Downregulation of LPA mRNA” value was determined as 64.0%. Further, the IL-6 was 32.0 pg/mL in data set [3] (donor 2 hPBMCs, 5 µg/mL); 49.5 pg/mL in data set [3] (donor 2 hPBMCs, 15 µg/mL); 1.1 pg/mL in data set [3] (donor 2 hPBMCs, 45 µg/mL). Also, the TNF alpha in data set [3] (donor 2 hPBMCs, 5 µg/mL) is recorded as 15.3 pg/mL; in data set [3] (donor 2 hPBMCs, 15 µg/mL) it was 20.4 pg/mL; in data set [3] (donor 2 hPBMCs, 45 µg/mL), 5.9 pg/mL.
“Z43: siRNA conjugate: sense SEQ ID NO:49, ligand D01 at 3' end of sense strand, antisense SEQ ID NO:81 (sense CAGCCCCTTATTGTTATACGA; antisense NCGTATNACAATAAGGGGCNGTT; ligand D01 at sense 3' end; listed as RNA; modified_base 1: mod_base = OTHER; note = 2'-O-methylcytidine; modified_base 2: mod_base = OTHER; note = 2'-O-methyladenosine; modified_base 3: mod_base = OTHER; note = 2'-O-methylguanosine; modified_base 4..7: mod_base = OTHER; note = 2'-O-me; note = n is B30; note = 2'-deoxycytidine; modified_base 4: mod_base = OTHER; note = 2'-O-methyluridine; m)” showed an EC50 in data set [1] of 0.09 nM. Moreover, in data set [2], the “% Downregulation of LPA mRNA” value was found to be 84.5%. For the same substance, the IL-6 is recorded as 1270.9 pg/mL in data set [3] (donor 1 hPBMCs, 5 µg/mL); 1339.1 pg/mL in data set [3] (donor 1 hPBMCs, 15 µg/mL); 1314.4 pg/mL in data set [3] (donor 1 hPBMCs, 45 µg/mL). The TNF alpha is listed as 35.4 pg/mL in data set [3] (donor 1 hPBMCs, 5 µg/mL); 36.9 pg/mL in data set [3] (donor 1 hPBMCs, 15 µg/mL); 32.2 pg/mL in data set [3] (donor 1 hPBMCs, 45 µg/mL).
